The results in this text go back to IntAct's records for PubMed 32296183.

First the molecules themselves.
B1: Transmembrane protein 43 (Homo sapiens), Q9BTV4 (parent)
chain: MAANYSSTSTRREHVKVKTSSQPGFLERLSETSGGMFVGLMAFLLSFYLIFTNEGRALKTATSLAEGLSLVVSPDSIHSVAPENEGRLVHIIGALRTSKLLSDPNYGVHLPAVKLRRHVEMYQWVETEESREYTEDGQVKKETRYSYNTEWRSEIINSKNFDREIGHKNPSAMAVESFMATAPFVQIGRFFLSSGLIDKVDNFKSLSLSKLEDPHVDIIRRGDFFYHSENPKYPEVGDLRVSFSYAGLSGDDPDLGPAHVVTVIARQRGDQLVPFSTKSGDTLLLLHHGDFSAEEVFHRELRSNSMKTWGLRAAGWMAMFMGLNLMTRILYTLVDWFPVFRDLVNIGLKAFAFCVATSLTLLTVAAGWLFYRPLWALLIAGLALVPILVARTRVPAKKLE
partner: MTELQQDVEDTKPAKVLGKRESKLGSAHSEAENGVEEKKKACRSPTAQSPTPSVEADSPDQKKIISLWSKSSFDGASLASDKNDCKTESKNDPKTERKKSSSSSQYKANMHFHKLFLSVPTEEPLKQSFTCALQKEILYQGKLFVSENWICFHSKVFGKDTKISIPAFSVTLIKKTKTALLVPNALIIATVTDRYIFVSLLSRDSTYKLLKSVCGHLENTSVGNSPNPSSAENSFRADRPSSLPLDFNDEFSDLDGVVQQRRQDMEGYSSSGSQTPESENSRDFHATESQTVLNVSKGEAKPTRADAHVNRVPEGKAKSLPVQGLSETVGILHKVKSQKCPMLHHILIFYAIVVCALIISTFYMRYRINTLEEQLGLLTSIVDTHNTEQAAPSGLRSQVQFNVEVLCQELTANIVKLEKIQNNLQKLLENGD
B2: Dolichol kinase (Homo sapiens), Q9UPQ8 (parent)
chain: MTRECPSPAPGPGAPLSGSVLAEAAVVFAVVLSIHATVWDRYSWCAVALAVQAFYVQYKWDRLLQQGSAVFQFRMSANSGLLPASMVMPLLGLVMKERCQTAGNPFFERFGIVVAATGMAVALFSSVLALGITRPVPTNTCVILGLAGGVIIYIMKHSLSVGEVIEVLEVLLIFVYLNMILLYLLPRCFTPGEALLVLGGISFVLNQLIKRSLTLVESQGDPVDFFLLVVVVGMVLMGIFFSTLFVFMDSGTWASSIFFHLMTCVLSLGVVLPWLHRLIRRNPLLWLLQFLFQTDTRIYLLAYWSLLATLACLVVLYQNAKRSSSESKKHQAPTIARKYFHLIVVATYIPGIIFDRPLLYVAATVCLAVFIFLEYVRYFRIKPLGHTLRSFLSLFLDERDSGPLILTHIYLLLGMSLPIWLIPRPCTQKGSLGGARALVPYAGVLAVGVGDTVASIFGSTMGEIRWPGTKKTFEGTMTSIFAQIISVALILIFDSGVDLNYSYAWILGSISTVSLLEAYTTQIDNLLLPLYLLILLMA
partner: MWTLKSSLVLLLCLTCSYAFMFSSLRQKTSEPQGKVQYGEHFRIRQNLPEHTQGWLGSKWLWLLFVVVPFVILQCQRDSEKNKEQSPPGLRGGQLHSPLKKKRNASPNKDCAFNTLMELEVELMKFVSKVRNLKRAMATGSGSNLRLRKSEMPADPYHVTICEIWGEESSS
B3: Catenin alpha-3 (Homo sapiens), Q9UI47-2 (parent)
chain: MSAETPITLNIDPQDLQVQTFTVEKLLEPLIIQVTTLVNCPQNPSSRKKGRSKRASVLLASVEEATWNLLDKGEKIAQEATVLKDELTASLEEVRKESEALKVSAERFTDDPCFLPKREAVVQAARALLAAVTRLLILADMIDVMCLLQHVSAFQRTFESLKNVANKSDLQKTYQKLGKELENLDYLAFKRQQDLKSPNQRDEIAGARASLKENSPLLHSICSACLEHSDVASLKASKDTVCEEIQNALNVISNASQGIQNMTTPPEPQAATLGSALDELENLIVLNPLTVTEEEIRPSLEKRLEAIISGAALLADSSCTRDLHRERIIAECNAIRQALQDLLSEYMNNAGKKERSNTLNIALDNMCKKTRDLRRQLRKAIIDHVSDSFLDTTVPLLVLIEAAKNGREKEIKEYAAIFHEHTSRLVEVANLACSMSTNEDGIKIVKIAANHLETLCPQIINAALALAARPKSQAVKNTMEMYKRTWENHIHVLTEAVDDITSIDDFLAVSGMFLFF
partner: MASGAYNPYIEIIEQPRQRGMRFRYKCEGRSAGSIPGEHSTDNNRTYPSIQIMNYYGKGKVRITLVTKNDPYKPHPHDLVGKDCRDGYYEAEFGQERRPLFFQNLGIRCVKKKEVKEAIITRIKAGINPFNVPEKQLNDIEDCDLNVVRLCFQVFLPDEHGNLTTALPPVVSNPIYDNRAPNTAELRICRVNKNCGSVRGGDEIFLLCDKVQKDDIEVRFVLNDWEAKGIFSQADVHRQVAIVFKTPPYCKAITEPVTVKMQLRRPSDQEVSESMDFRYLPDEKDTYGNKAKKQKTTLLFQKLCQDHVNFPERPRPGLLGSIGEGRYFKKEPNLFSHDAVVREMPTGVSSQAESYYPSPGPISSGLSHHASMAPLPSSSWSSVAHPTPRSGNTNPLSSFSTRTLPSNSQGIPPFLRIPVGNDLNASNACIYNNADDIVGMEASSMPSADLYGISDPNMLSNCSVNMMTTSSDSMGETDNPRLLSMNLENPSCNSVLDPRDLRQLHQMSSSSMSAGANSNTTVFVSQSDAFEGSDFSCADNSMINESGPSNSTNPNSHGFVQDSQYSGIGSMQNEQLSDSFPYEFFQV
B4: Golgi SNAP receptor complex member 2 (Homo sapiens), O14653 (parent)
chain: MDPLFQQTHKQVHEIQSCMGRLETADKQSVHIVENEIQASIDQIFSRLERLEILSSKEPPNKRQNARLRVDQLKYDVQHLQTALRNFQHRRHAREQQERQREELLSRTFTTNDSDTTIPMDESLQFNSSLQKVHNGMDDLILDGHNILDGLRTQRLTLKGTQKKILDIANMLGLSNTVMRLIEKRAFQDKYFMIGGMLLTCVVMFLVVQYLT
partner: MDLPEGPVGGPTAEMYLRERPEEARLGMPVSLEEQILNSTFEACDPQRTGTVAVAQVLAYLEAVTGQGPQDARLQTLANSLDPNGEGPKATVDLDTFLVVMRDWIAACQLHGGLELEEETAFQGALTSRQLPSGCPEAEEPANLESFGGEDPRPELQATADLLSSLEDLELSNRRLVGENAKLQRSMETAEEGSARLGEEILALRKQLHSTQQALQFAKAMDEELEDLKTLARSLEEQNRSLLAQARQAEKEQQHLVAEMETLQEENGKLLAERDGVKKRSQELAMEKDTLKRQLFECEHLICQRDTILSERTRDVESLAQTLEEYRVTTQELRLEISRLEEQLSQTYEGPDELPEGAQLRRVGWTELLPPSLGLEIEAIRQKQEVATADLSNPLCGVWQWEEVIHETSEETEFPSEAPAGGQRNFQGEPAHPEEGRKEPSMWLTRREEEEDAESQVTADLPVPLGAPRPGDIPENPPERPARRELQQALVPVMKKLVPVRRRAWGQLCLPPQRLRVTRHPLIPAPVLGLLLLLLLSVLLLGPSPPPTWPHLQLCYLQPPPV
B5: Golgi SNAP receptor complex member 2 (Homo sapiens), O14653 (parent)
chain: B4 chain
partner: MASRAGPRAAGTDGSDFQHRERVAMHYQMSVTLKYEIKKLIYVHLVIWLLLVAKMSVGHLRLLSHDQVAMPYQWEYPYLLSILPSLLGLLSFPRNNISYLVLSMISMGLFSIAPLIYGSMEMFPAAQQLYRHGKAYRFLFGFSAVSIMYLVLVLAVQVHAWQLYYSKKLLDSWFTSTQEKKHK
B6: Succinate--CoA ligase [ADP-forming] subunit beta, mitochondrial (Homo sapiens), Q9P2R7 (parent)
chain: MAASMFYGRLVAVATLRNHRPRTAQRAAAQVLGSSGLFNNHGLQVQQQQQRNLSLHEYMSMELLQEAGVSVPKGYVAKSPDEAYAIAKKLGSKDVVIKAQVLAGGRGKGTFESGLKGGVKIVFSPEEAKAVSSQMIGKKLFTKQTGEKGRICNQVLVCERKYPRREYYFAITMERSFQGPVLIGSSHGGVNIEDVAAESPEAIIKEPIDIEEGIKKEQALQLAQKMGFPPNIVESAAENMVKLYSLFLKYDATMIEINPMVEDSDGAVLCMDAKINFDSNSAYRQKKIFDLQDWTQEDERDKDAAKANLNYIGLDGNIGCLVNGAGLAMATMDIIKLHGGTPANFLDVGGGATVHQVTEAFKLITSDKKVLAILVNIFGGIMRCDVIAQGIVMAVKDLEIKIPVVVRLQGTRVDDAKALIADSGLKILACDDLDEAARMVVKLSEIVTLAKQAHVDVKFQLPI
partner: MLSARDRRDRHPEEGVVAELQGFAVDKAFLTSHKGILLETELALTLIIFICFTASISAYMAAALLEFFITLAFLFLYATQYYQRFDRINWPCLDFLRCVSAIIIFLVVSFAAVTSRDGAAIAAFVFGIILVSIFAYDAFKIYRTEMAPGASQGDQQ
B7: Golgi SNAP receptor complex member 2 (Homo sapiens), O14653 (parent)
chain: B4 chain
partner: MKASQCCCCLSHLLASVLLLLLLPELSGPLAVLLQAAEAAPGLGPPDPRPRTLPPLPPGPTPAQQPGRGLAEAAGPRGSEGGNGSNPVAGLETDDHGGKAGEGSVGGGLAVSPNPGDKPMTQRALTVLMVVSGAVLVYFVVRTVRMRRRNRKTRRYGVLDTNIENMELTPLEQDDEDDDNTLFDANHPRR

In one experiment the parent is B1. The note with it: with grm2b_human GRAMD2B.
Consider E85K, for which the “effect of a mutation on the interaction” value was “with no effect”.

Y371H: the “effect of a mutation on the interaction” value was “with no effect”. On the same count and under the same terms, the result for E142K reads “with no effect”.

In another experiment the parent is B2. The note with it: with FAM209A.
Y441S: the “effect of a mutation on the interaction” value was “disrupting interaction strength”.

Another experiment covers variants of B3. The note with it: with REL.
V94D: the “effect of a mutation on the interaction” value is “with no effect”.

In the next experiment the parent is B4. Particulars: with kash5_human KASH5, Q8N6L0.
G144W: the “effect of a mutation on the interaction” value is “with no effect”.

Another experiment covers variants of B5. Particulars: with jagn1_human JAGN1, Q8N5M9.
G144W: the “effect of a mutation on the interaction” value is “with no effect”.

In the next experiment the parent is B6. The note with it: with CMTM5, Q96DZ9-2.
Turning to D251N, the “effect of a mutation on the interaction” value was “disrupting interaction strength”. For the variant G118R, the “effect of a mutation on the interaction” value was “disrupting interaction strength”.

In another experiment the parent is B7. The note with it: with FAM174A.
Consider G144W, for which the “effect of a mutation on the interaction” value was “with no effect”.
